# Assay results taken from doi:10.1101/2022.12.10.519866 (bioRxiv, 2022).
# Legend:
# Test in all cases: cryo-EM structure
# [1] = biological target: 3×FLAG-tagged full-length mouse BIRC6 (mouse) (UniProt O88738)
# [2] = biological target: 3×FLAG-tagged full-length mouse BIRC6 (mouse, UniProt O88738 1-4882)
# cryo-EM structure = biological target: the molecule itself
# 3×FLAG-tagged full-length mouse BIRC6, sequence (O88738 whole entry): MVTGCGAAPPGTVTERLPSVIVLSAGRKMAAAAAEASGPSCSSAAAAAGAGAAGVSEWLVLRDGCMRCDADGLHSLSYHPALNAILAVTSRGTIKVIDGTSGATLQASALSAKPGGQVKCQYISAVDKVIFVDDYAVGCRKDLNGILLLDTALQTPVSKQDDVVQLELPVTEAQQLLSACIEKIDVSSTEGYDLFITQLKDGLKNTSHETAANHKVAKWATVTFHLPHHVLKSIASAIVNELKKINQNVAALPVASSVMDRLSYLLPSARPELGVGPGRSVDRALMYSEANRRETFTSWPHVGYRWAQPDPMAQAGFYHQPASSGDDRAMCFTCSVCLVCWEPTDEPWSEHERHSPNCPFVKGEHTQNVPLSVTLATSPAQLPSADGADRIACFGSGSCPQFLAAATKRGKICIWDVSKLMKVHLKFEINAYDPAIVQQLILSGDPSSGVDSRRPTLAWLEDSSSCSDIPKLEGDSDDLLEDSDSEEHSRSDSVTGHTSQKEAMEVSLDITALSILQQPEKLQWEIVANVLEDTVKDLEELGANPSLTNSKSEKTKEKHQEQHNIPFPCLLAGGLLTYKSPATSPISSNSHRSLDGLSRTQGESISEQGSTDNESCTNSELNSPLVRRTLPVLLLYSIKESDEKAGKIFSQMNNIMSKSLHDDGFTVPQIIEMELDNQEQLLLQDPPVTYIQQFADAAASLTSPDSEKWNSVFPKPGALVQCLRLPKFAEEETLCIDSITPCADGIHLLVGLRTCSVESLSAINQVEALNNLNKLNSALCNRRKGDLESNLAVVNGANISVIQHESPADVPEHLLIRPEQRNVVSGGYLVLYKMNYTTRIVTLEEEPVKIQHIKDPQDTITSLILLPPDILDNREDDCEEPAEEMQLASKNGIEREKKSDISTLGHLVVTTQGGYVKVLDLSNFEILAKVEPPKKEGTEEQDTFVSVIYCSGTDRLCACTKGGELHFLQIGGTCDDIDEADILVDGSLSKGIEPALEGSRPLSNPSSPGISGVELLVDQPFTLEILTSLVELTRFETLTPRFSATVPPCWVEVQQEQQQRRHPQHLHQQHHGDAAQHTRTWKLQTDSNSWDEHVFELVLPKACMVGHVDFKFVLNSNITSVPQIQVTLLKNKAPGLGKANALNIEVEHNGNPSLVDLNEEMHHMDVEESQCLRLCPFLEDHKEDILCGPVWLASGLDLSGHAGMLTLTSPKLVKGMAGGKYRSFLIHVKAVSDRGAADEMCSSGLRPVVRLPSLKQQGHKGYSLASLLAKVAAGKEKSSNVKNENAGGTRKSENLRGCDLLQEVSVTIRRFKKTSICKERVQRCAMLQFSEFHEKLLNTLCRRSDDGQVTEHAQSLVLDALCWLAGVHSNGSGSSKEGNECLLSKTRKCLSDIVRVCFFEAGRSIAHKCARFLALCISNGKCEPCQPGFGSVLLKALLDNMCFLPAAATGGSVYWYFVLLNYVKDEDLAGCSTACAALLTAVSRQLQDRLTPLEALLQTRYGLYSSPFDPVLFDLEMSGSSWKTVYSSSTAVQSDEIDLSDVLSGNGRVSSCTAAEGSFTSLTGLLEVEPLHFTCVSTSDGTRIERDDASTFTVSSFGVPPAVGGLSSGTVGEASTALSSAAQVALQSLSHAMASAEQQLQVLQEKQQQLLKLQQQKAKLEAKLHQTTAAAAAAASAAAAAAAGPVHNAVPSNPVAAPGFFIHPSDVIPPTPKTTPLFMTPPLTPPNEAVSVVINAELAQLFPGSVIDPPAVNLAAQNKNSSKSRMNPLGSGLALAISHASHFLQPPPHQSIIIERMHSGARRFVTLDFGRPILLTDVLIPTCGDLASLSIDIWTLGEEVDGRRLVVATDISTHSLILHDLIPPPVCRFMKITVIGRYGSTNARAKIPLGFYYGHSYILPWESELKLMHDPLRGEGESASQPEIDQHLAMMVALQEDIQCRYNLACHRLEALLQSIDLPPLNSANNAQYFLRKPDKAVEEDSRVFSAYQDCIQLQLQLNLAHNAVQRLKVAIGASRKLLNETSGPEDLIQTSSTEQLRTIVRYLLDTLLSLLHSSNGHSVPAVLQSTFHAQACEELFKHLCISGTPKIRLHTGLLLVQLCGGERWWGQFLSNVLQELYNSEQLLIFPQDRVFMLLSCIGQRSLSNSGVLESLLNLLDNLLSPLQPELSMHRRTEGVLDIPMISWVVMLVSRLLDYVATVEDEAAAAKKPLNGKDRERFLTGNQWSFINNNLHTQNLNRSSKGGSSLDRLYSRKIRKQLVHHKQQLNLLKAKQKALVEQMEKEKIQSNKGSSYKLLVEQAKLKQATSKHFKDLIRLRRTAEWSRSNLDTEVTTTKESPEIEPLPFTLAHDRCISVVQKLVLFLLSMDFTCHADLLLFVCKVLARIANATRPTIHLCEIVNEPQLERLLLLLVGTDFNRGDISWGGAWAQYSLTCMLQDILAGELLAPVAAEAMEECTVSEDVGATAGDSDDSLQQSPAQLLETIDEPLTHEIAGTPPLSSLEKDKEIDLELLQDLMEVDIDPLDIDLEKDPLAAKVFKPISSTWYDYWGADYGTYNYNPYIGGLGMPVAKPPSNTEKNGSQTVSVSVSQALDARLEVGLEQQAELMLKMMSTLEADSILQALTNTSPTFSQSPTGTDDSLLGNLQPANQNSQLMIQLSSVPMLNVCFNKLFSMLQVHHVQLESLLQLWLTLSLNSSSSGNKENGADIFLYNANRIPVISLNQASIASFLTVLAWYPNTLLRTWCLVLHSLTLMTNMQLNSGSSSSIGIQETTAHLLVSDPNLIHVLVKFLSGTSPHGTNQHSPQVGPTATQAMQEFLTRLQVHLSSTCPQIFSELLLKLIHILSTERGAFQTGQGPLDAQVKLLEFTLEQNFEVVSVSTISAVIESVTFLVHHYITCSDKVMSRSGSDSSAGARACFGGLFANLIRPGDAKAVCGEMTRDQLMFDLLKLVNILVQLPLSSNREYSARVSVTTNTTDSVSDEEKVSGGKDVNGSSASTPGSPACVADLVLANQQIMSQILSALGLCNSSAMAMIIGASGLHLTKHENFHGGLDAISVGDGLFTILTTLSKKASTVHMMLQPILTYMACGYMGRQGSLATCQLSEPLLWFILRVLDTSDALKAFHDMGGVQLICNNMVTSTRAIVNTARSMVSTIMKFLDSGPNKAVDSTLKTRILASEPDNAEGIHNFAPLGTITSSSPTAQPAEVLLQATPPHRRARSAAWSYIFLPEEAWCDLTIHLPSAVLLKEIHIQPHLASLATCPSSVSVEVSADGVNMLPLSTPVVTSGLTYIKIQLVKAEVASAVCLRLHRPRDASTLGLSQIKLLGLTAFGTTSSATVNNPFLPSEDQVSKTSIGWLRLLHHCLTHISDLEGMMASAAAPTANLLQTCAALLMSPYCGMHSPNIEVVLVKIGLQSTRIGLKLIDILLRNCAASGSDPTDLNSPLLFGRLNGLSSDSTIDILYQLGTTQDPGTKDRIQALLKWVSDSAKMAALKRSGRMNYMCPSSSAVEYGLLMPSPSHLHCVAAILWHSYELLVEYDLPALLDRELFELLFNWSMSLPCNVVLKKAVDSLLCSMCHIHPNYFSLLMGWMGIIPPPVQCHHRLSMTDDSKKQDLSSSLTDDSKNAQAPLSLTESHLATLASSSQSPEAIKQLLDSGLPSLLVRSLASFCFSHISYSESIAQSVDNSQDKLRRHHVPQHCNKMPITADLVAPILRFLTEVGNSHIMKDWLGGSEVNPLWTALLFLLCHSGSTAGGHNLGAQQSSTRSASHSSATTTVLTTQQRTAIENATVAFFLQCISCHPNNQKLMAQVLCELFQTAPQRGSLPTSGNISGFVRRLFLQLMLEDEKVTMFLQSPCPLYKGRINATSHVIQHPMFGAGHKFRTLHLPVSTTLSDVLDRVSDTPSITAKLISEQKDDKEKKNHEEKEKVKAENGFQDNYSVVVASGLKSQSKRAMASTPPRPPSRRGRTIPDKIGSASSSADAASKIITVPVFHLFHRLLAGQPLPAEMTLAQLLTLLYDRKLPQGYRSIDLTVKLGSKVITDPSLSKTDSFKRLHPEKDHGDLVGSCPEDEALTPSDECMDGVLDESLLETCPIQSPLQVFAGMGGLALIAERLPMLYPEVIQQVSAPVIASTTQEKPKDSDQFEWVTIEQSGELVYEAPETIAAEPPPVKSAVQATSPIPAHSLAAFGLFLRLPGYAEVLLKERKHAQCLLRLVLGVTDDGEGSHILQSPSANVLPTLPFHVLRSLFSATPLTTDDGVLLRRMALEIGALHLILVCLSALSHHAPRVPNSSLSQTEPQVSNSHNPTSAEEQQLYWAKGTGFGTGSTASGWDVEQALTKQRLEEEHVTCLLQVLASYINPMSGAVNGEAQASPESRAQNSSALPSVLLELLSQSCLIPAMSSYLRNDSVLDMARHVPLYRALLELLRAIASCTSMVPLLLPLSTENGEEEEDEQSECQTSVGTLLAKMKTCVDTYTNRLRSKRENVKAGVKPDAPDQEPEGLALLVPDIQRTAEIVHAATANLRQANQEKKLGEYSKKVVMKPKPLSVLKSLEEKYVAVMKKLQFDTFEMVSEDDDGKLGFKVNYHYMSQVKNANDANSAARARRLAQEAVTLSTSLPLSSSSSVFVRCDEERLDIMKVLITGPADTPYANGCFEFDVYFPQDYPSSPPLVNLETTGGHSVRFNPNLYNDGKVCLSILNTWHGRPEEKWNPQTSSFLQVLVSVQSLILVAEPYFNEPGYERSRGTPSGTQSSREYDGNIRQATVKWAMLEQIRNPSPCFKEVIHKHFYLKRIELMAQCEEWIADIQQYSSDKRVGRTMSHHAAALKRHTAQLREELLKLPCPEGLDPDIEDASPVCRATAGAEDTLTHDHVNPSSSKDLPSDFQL
stoichiometry N [1],binding result [2],Molecule,stoichiometry N (cryo-EM structure)
2,–,"3×FLAG-tagged full-length mouse BIRC6, O88738 1-4882",–
–,binds,"Smac/DIABLO, endogenous, co-purified with FLAG-BIRC6 from HEK293F cells (natural protein) AVPIAQKSEPHSLSSEALMRRAVSLVTDSTSTFLSQTTYALIEAITEYTKAVYTLTSLYRQYTSLLGKMNSEEEDEVWQVIIGARAEMTSKHQEYLKLETTWMTAVGLSEMAAEAAYQTGADQASITARNHIQLVKLQVEEVHQLSRKAETKLAEAQIEELRQKTQEEGEERAESEQEAYLRED",2
